From patent publication US20170340735A1 (published 2017)
Numbering of substitutions follows the chain as printed.

Columns and labels:
[1] = target: T1, human TIGIT on the cell surface (human, UniProt Q495A1 22-244); experiment: cell-based or functional assay
T1 sequence: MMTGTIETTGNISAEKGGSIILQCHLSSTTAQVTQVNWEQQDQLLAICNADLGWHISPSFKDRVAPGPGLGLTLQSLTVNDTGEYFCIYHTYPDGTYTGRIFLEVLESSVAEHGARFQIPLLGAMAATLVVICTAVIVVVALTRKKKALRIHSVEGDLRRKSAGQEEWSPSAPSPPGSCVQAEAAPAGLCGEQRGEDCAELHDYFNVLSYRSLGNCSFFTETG

[2] = target: T2, human PVRL4-His (human, UniProt Q96NY8 32-349); experiment: BLI, antibody on AHC sensor, human PVRL4-His in solution
T2 construct: also called Nectin-4; not shown: His tag
T2 sequence (looked up): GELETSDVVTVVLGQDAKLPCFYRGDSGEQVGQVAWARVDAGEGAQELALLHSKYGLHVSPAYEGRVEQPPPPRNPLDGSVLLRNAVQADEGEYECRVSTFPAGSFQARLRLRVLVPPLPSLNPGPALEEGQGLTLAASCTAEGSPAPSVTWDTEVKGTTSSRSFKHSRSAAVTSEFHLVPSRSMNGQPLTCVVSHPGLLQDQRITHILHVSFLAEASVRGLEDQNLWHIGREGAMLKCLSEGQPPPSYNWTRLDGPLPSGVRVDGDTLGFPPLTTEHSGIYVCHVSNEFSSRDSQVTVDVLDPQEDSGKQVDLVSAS
Method: The BLI analysis was performed at 30° C. using 1× kinetics buffer as assay buffer. AHC sensors were first presoaked in assay buffer for greater than 5 minutes. Antibody (5 μg/mL) was captured on the sensor for 300 seconds. Sensors were then dipped in assay buffer for 120 seconds to establish a baseline before measuring binding to human PVRL4-His protein. Sensors were then dipped into human PVRL4-His (200 nM in assay buffer) for 200 seconds to measure association. Dissociation of PVRL4 was then measured by dipping sensors into assay buffer for 200 seconds. Results were analyzed using Octet® Data Analysis Software Version 8.2.0.7.

[3] = target: T3, recombinant monomeric human TIGIT-His (human, UniProt Q495A1 22-141); experiment: MSD-SET solution equilibrium titration, monomeric antigen
T3 construct: also called hTIGIT; not shown: His tag
T3 sequence: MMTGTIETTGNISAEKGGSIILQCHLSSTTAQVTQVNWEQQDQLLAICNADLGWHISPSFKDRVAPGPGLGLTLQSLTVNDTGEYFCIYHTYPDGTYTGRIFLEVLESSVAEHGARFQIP
Method: (§1) See Estep et al., supra, incorporated by reference in its entirety. Briefly, solution equilibrium titrations (SET) were performed in PBS+0.1% IgG-Free BSA (PBSF) with antigen (TIGIT monomer) held constant at 10-100 pM and incubated with 3- to 5-fold serial dilutions of Fab or mAbs starting at 10 pM-10 nM. Antibodies (20 nM in PBS) were coated onto standard bind MSD-ECL plates overnight at 4° C. or at room temperature for 30 min. Plates were then blocked by BSA for 30 min with shaking at 700 rpm, followed by three washes with wash buffer (PBSF+0.05% Tween 20). SET samples were applied and incubated on the plates for 150s with shaking at 700 rpm followed by one wash. Antigen captured on a plate was detected with 250 ng/mL sulfotag-labeled streptavidin in PBSF by incubation on the plate for 3 min. The plates were washed three times with wash buffer and then read on the MSD Sector Imager 2400 instrument using 1× Read Buffer T with surfactant. The percent free antigen was plotted as a function of titrated antibody in Prism and fit to a quadratic equation to extract the KD. To improve throughput, liquid handling robots were used throughout MSD-SET experiments, including SET sample preparation.

[4] = target: T4, recombinant monomeric cynomolgus monkey TIGIT-His (cynomolgus monkey); experiment: as above
T4 construct: also called Cyno TIGIT His; cTIGIT; not shown: His tag
Method: as §1

[5] = target: T1, human TIGIT on the cell surface; experiment: flow cytometry, antibody titrated against labeled PVR-Fc binding to human TIGIT Jurkat cells
Method: (§2) Quantitative ligand blocking studies were conducted by using a cell surface TIGIT binding assay.

[6] = target: T3, recombinant monomeric human TIGIT-His; experiment: BLI (ForteBio), IgG on AHQ sensor, 100 nM monomeric antigen, 1:1 model
Method: (§3) Quantitative binding of antibodies to recombinant monomeric human, mouse (SEQ ID NO: 3), cynomolgus monkey TIGIT was measured using biolayer interferometry (BLI) with a FORTEBIO®. […] FORTEBIO affinity measurements were performed by loading IgGs on-line onto AHQ sensors. Sensors were equilibrated off-line in assay buffer for 30 min and then monitored on-line for 60 seconds for baseline establishment. Sensors with loaded IgGs were exposed to a single concentration of antigen (100 nM) for 3 minutes. Afterwards they were transferred to assay buffer for 3 minutes for off-rate measurement. Kinetics were analyzed using the 1:1 binding model.

[7] = target: T4, recombinant monomeric cynomolgus monkey …; experiment: as above
Method: as §3

[8] = target: T1, human TIGIT on the cell surface; experiment: flow cytometry, antibody titrated against labeled PVRL2-Fc binding to human TIGIT Jurkat cells
Method: as §2

[9] = target: T3, recombinant monomeric human TIGIT-His; experiment: BLI (Octet QKe), antibody on AHC sensor, several concentrations of human TIGIT-His, 1:1 global fit, average
Method: A strategy of capturing anti-TIGIT antibodies on sensors following association/dissociation of monomeric TIGIT proteins was used to avoid avidity effects in the assay. The BLI analysis was performed at 29° C. using 1× kinetics buffer (ForteBio) as assay buffer. Anti-human IgG Fc capture (AHC) biosensors (ForteBio) were first presoaked in assay buffer for over five minutes. Anti-TIGIT antibody (5 μg/mL) was captured on the sensor for 300 seconds. Sensors were then dipped in assay buffer for 120 seconds to establish a baseline before measuring binding to each TIGIT protein. […] Dissociation of TIGIT was measured by dipping the sensors into assay buffer for 600, 1200, or 1800 seconds, depending on the experiment (600 seconds was only used for mouse TIGIT-His). Agitation at all steps was 1000 rpm.
Kinetic parameters were generated with Octet® Data Analysis Software Version 8.2.0.7 using reference subtraction, dissociation based inter-step correction, 1-to-1 binding model, and global fit (Rₘₐₓ unlinked by sensor).

T4 sequence (chain, as listed by the source limits assumed): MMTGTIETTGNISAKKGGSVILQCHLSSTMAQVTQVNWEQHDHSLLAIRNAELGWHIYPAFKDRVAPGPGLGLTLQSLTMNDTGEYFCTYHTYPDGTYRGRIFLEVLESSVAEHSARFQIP

B1: SEC1 (format not stated) (antibody, V domains shown)
VH: EVQLVESGGGLTQPGKSLKLSCEASGFTFSSFTMHWVRQSPGKGLEWVAFIRSGSGIVFYADAVRGRFTISRDNAKNLLFLQMNDLKSEDTAMYYCARRPLGHNTFDSWGQGTLVTVSS
VL: DIVMTQSPSSLAVSPGEKVTMTCKSSQSLYYSGVKENLLAWYQQKPGQSPKLLIYYASIRFTGVPDRFTGSGSGTDYTLTITSVQAEDMGQYFCQQGINNPLTFGDGTKLEIK
With B1 the “Average EC50, IL-2 production, human TIGIT Jurkat/anti-CD3 HT-1080 co-culture assay” value [1] was 8.46 nM.

B2: MAB3-IgG4 (antibody, V domains shown)
VH: QLQLQESGPGLVKPSETLSLTCTVSGGSISSTSHYWGWIRQPPGKGLEWIGSIYYSGSTFYNPSLKSRVTISVDTSKNQFSLKLSSVTAADTAVYYCARDANYYGSAWAFDPWGQGTLVTVSS
VL: EIVLTQSPATLSLSPGERATLSCRASQSVSSYLAWYQQKPGQAPRLLIYDASNRATGIPARFSGSGSGTDFTLTISSLEPEDFAVYYCQQHFNLPTFGGGTKVEIKR
In the case of B2, the binding result [2] is reported as “no binding (tested: 200 nM)”, the Kd [3] is reported as 0.0081 nM and the Kd [4] is reported as 0.035 nM. It also gave an IC50 [5] of 1.6 nM, a Kd [6] of 0.332 nM and a Kd [7] of 0.802 nM. The IC50 [8] was 1.2 nM and the “Average EC50, IL-2 production, human TIGIT Jurkat/anti-CD3 HT-1080 co-culture assay” value [1] was 0.33 nM.

B3: MAB19-IgG4 (antibody, V domains shown)
VH: QVQLVQSGAEVKKPGASVKVSCKASGYTFTSHYMGWVRQAPGQGLEWMGVINPSMGATSYAQKFQGRVTMTRDTSTSTVYMELSSLRSEDTAVYYCARLHVSGSYYPAYLDYWGQGTMVTVSS
VL: EIVMTQSPATLSVSPGERATLSCRASQSVSSNLAWYQQKPGQAPRHLIYGASTRATGIPARFSGSGSGTEFTLTISSLQSEDFAVYYCQQYIVFPWTFGGGTKVEIKR
B3 was tested, and the binding result [2] was “no binding (tested: 200 nM)”, the IC50 [5] was 6.4 nM and the IC50 [8] was 2 nM. For the same binder, the “Average EC50, IL-2 production, human TIGIT Jurkat/anti-CD3 HT-1080 co-culture assay” value [1] was 0.2 nM.

B4: MAB21-IgG4 (antibody, V domains shown)
VH: B3 VH with V50I, A61T, Q65R
VL: B3 VL
In the case of B4, the binding result [2] is reported as “no binding (tested: 200 nM)”, the Kd [3] is reported as 0.08 nM and the IC50 [5] is reported as 1 nM. The IC50 [8] was 0.8 nM, the “Average EC50, IL-2 production, human TIGIT Jurkat/anti-CD3 HT-1080 co-culture assay” value [1] was 0.61 nM and the Kd [9] was 0.36 nM. It also gave a koff [9] of 0.0005 s⁻¹ and a kon [9] of 1.4e+06 M⁻¹ s⁻¹.

B5: MAB20-IgG4 (antibody, V domains shown)
VH: B3 VH with M48V, V50I
VL: B3 VL
B5 was tested, and the binding result [2] was “no binding (tested: 200 nM)”, the Kd [3] was 0.03 nM and the IC50 [5] was 2.3 nM. For the same binder, the IC50 [8] was 1.9 nM, the “Average EC50, IL-2 production, human TIGIT Jurkat/anti-CD3 HT-1080 co-culture assay” value [1] was 0.68 nM and the Kd [9] was 0.46 nM. The koff [9] was 0.00038 s⁻¹ and the kon [9] was 890000 M⁻¹ s⁻¹.

B6: MAB18-IgG4 (antibody, V domains shown)
VH: QVQLVQSGAEVKKPGASVKVSCKASGYTFPAYYMHWVRQAPGQGLEWMGIINPSLGLTSYARKFQGRVTMTRDTSTSTVYMELSSLRSEDTAVYYCARGGRTTWIGAFDIWGQGTMVTVSS
VL: EIVMTQSPATLSVSPGERATLSCRASQSVSSNLAWYQQKPGQAPRLLIYGASTRATGIPARFSGSGSGTEFTLTISSLQSEDFAVYYCQQYVVWPPLTFGGGTKVEIKR
For B6, the binding result [2] was “no binding (tested: 200 nM)”, the IC50 [5] was 1.8 nM and the Kd [6] was 0.448 nM. The Kd [7] was 72 nM, the IC50 [8] was 1.9 nM and the “Average EC50, IL-2 production, human TIGIT Jurkat/anti-CD3 HT-1080 co-culture assay” value [1] was 0.25 nM. The Kd [9] was 0.81 nM, the koff [9] was 0.00059 s⁻¹ and the kon [9] was 750000 M⁻¹ s⁻¹.

B7: MAB13-IgG4 (antibody, V domains shown)
VH: B6 VH with P30G, A31N, R62Q
VL: B6 VL
In the case of B7, the binding result [2] is reported as “no binding (tested: 200 nM)”, the Kd [3] is reported as 0.4 nM and the IC50 [5] is reported as 2.1 nM. For the same binder, the Kd [6] was 1.44 nM, the IC50 [8] was 1.8 nM and the “Average EC50, IL-2 production, human TIGIT Jurkat/anti-CD3 HT-1080 co-culture assay” value [1] was 1.4 nM.

B8: MAB14-IgG4 (antibody, V domains shown)
VH: B6 VH with R62Q
VL: B6 VL
B8 was tested, and the binding result [2] was “no binding (tested: 200 nM)”, the Kd [3] was 0.38 nM and the IC50 [5] was 2.6 nM. For the same binder, the Kd [6] was 1.23 nM, the IC50 [8] was 1.6 nM and the “Average EC50, IL-2 production, human TIGIT Jurkat/anti-CD3 HT-1080 co-culture assay” value [1] was 0.71 nM.

B9: MAB17-IgG4 (antibody, V domains shown)
VH: B6 VH with M34I, F108L
VL: B6 VL
For B9, the binding result [2] was “no binding (tested: 200 nM)”, the Kd [3] was 0.041 nM and the IC50 [5] was 2.6 nM. The Kd [6] was 0.429 nM, the Kd [7] was 110 nM and the IC50 [8] was 1.9 nM. The “Average EC50, IL-2 production, human TIGIT Jurkat/anti-CD3 HT-1080 co-culture assay” value [1] was 0.13 nM.

B10: MAB16-IgG4 (antibody, V domains shown)
VH: B6 VH with P30R, A31E, L55I, F108L
VL: B6 VL
In the case of B10, the binding result [2] is reported as “no binding (tested: 200 nM)”, the Kd [3] is reported as 0.07 nM and the IC50 [5] is reported as 2.1 nM. It also gave a Kd [6] of 0.378 nM, a Kd [7] of 70.4 nM and an IC50 [8] of 1.3 nM. For the same binder, the “Average EC50, IL-2 production, human TIGIT Jurkat/anti-CD3 HT-1080 co-culture assay” value [1] was 1.11 nM, the Kd [9] was 1.1 nM and the koff [9] was 0.00035 s⁻¹. For the same binder, the kon [9] was 450000 M⁻¹ s⁻¹.

B11: MAB15-IgG4 (antibody, V domains shown)
VH: B6 VH with P30R, A31E, L55I
VL: B6 VL
With B11 the binding result [2] was “no binding (tested: 200 nM)”, the Kd [3] was 0.21 nM and the IC50 [5] was 2.2 nM. For the same binder, the Kd [6] was 0.526 nM, the Kd [7] was 79.4 nM and the IC50 [8] was 1.1 nM. The “Average EC50, IL-2 production, human TIGIT Jurkat/anti-CD3 HT-1080 co-culture assay” value [1] was 0.21 nM, the Kd [9] was 0.58 nM and the koff [9] was 0.00066 s⁻¹. It also gave a kon [9] of 1.1e+06 M⁻¹ s⁻¹.
